US20040192898A1 (published 2004)

Target: T1, Amyloid-beta 1-42 (UniProt P05067 672-713)
T1 construct: domain: Amyloid-beta 1-42; Bought peptide; 1-42 counts on the Aβ peptide, not on APP; also called Aβ1-42
Experiment: SPR, BIAcore 2000; antibody captured, Aβ flowed over
Method: Antibody affinity (KD=Kd/Ka) was determined using a BlAcore biosensor 2000 and data analyzed with BlAevaluation (v. 3.1) software. A capture antibody (rabbit anti-mouse) was coupled via free amine groups to carboxyl groups on flow cell 2 of a biosensor chip (CM5) using N-ethyl-N-dimethylaminopropyl carbodiimide and N-hydroxysuccinimide (EDC/NHS). A non-specific rabbit IgG was coupled to flow cell 1 as a background control. Monoclonal antibodies were captured to yield 300 resonance units (RU). […] To regenerate the chip, bound anti-Aβ antibody was eluted from the chip using a wash with glycine-HCI (pH 2). A control injection containing no amyloid-beta served as a control for baseline subtraction.

T1 sequence (P05067 672-713 limits assumed): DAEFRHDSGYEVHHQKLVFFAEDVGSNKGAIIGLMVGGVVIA

B1: Humanized 266 antibody (antibody, human IgG1, kappa, V domains shown)
VH: EVQLVESGGGLVQPGGSLRLSCAASGFTFSRYSMSWVRQAPGKGLELVAQINSVGNSTYYPDTVKGRFTISRDNAKNTLYLQMNSLRAEDTAVYYCASGDYWGQGTLVTVSS
VL: DVVMTQSPLSLPVTLGQPASISCRSSQSLIYSDGNAYLHWFLQKPGQSPRLLIYKVSNRFSGVPDRFSGSGSGTDFTLKISRVEAEDVGVYYCSQSTHVPWTFGQGTKVEIKR
modifications: N-glycosylated at Asn 56 (fully) and Asn 292
notes: Human IgG1 (pVg1) / kappa, expressed in Sp2/0; also called Hu266
- Kd: 4 pM
